In data set [1] the target is Factor VIIa/Tissue Factor (lipidated) complex (UniProt P08709). The data set is described as follows: cell-based or functional assay.
Data set [2] concerns the target Factor Xa (UniProt P00742). The data set is described as follows: cell-based or functional assay.
In data set [3] the target is Ixolaris (recombinant, mature protein of 140 amino acids).

Chain of UniProt P08709 (P08709 61-466 limits assumed, chain 1 of 2): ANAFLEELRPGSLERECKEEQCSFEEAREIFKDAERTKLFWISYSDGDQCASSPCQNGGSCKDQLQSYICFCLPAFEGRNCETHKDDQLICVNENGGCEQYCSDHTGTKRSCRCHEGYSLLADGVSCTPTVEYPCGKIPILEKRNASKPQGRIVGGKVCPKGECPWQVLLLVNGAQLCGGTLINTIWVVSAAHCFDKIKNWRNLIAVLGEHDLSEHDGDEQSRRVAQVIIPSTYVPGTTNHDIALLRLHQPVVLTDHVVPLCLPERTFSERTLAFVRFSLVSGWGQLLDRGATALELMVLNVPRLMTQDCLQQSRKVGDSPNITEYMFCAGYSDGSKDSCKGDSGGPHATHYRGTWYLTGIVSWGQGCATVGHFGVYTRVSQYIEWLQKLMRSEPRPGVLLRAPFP
Chain of UniProt P08709 (P13726 33-295 limits assumed, chain 2 of 2, further chain): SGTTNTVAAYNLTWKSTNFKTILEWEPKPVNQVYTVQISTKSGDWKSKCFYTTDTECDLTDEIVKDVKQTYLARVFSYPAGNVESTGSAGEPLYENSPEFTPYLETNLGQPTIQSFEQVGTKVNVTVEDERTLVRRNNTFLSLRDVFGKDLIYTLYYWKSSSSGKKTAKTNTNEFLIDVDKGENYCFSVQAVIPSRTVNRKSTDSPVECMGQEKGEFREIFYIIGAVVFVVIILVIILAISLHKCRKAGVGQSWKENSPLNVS

Regarding “Ixolaris (recombinant, mature protein of 140 amino acids) (from UniProt Q964Q0 27-165)”, in data set [1], the Residual activity (%) of VIIa/TF (6.4 pM)/S2288 (1 mM) with 32 nM Ixolaris was determined as 0% and the inhibition of Factor X (200 nM) activation after preincubation of Factor VIIa/TF (1 nM/0.2 pM) with 100 pM Ixolaris stood at 65%. In data set [2], this molecule registered an ED50 of the increase of Factor Xa (125 pM) esterolytic activity on S2222 of 159 pM and an increase of amidolytic activity of Factor Xa (640 pM) by Ixolaris (400 pM) of 40%.
As for “Ixolaris/DEGR-Factor X complex (from UniProt P00742 41-488)”, in data set [1], the inhibition of Factor X (200 nM) activation after preincubation of Factor VIIa/TF with 100 pM Ixolaris/DEGR-Factor X is > 85%.
Consider “full-length human TFPI (recombinant, 4900PC) (from UniProt P10646 29-304)”, for which, in data set [1], the IC50 of inhibition of Factor VIIa/TF-induced Factor X activation, at 15 nM Factor X came out at 0.61 nM; the IC50 of inhibition of Factor VIIa/TF-induced Factor X activation, at 75 nM Factor X turned out to be 0.62 nM; the IC50 of inhibition of Factor VIIa/TF-induced Factor X activation, at 200 nM Factor X is 0.625 nM.

B1: γ-carboxyglutamic acid domainless Factor Xa (des-Gla-Factor Xa) (protein)
chain: KDGDQCETSPCQNQGKCKDGLGEYTCTCLEGFEGKNCELFTRKLCSLDNGDCDQFCHEEQNSVVCSCARGYTLADNGKACIPTGPYPCGKQTLERIVGGQECKDGECPWQALLINEENEGFCGGTILSEFYILTAAHCLYQAKRFKVRVGDRNTEQEEGGEAVHEVEVVIKHNRFTKETYDFDIAVLRLKTPITFRMNVAPACLPERDWAESTLMTQKTGIVSGFGRTHEKGRQSTRLKMLEVPYVDRNSCKLSSSFIITQNMFCAGYDTKQEDACQGDSGGPHVTRFKDTYFVTGIVSWGEGCARKGKYGIYTKVTAFLKWIDRSMKTRGLPKAKSHAPEVITSSPLK
For the molecule B1, in data set [3], the “activity of 0.4 nM des-Gla-Factor Xa plus 1.6 nM Ixolaris (control without Ixolaris: 1.4±0.12 units of Vmax)” value was 0.4 nM des-Gla-Factor Xa plus 1.6 nM Ixolaris: 2.78±0.1 units of Vmax and the “fold increase of des-Gla-Factor Xa proteolytic activity in the presence of 1.6 nM Ixolaris” value is on record as “proteolytic activity increased 1.98 fold in the presence of Ixolaris”.

Source of the values: patent US20040018516A1.
